Measurements from patent US8530235B2, “Medium that supports culture of an oocyte and modulation of granulosa cell apoptosis” (Adelaide Research & Innovation Pty Ltd., priority 2005, dated 2013).

B1: GDF-9: Recombinant mouse GDF-9 produced in-house in transfected 293H cells, partially purified by HIC (protein, UniProt Q07105 307-441, looked up)
Growth/differentiation factor …: GQKAIRSEAKGPLLTASFNLSEYFKQFLFPQNECELHDFRLSFSQLKWDNWIVAPHRYNPRYCKGDCPRAVRHRYGSPVHTMVQNIIYEKLDPSVPRPSCVPGKYSPLSVLTIEPDGSIAYKEYEDMIATRCTCR
B2: BMP-15: Recombinant ovine BMP-15 produced in-house in transfected 293H cells, partially purified by hydrophobic interaction chromatography; dosed as % v/v (protein, UniProt Q9MZE2 269-393, looked up)
Bone morphogenetic protein 15: QAGSIASEVPGPSREHDGPESNQCSLHPFQVSFQQLGWDHWIIAPHLYTPNYCKGVCPRVLHYGLNSPNHAIIQNLVSELVDQNVPQPSCVPYKYVPISILLIEANGSILYKEYEGMIAQSCTCR

Tested on: cumulus-oocyte complexes
Test: Study IV: oocyte developmental competence after IVM, IVF and embryo culture
Type: cell-based, Bovine
Conditions: for blastocyst yields with exogenous factor / effect on cleavage rate: Experiments 3 & 4; for blastocyst yields with exogenous factor: 175 ng/ml GDF9 or 10% v/v BMP15; for effect on cleavage rate: 4 μM SB-431542, 175 ng/ml GDF9, 10% v/v BMP15, 10% v/v 293H
Method: Unless otherwise specified, all chemicals and reagents were purchased from Sigma (St Louis, Mo.). Bovine ovaries were collected from local abattoirs and transported to the laboratory in warm saline (30-35° C.). COCs were aspirated from antral follicles (3 to 5 mm diameter) using an 18-gauge needle and a 10-ml syringe containing ˜2 ml aspiration medium (Hepes-buffered. Tissue Cultured Medium-199; TCM-199. ICN Biochemicals, Irvine, Calif., USA) supplemented with 50 μg/ml kanamycin, 0.5 mM sodium pyruvate, 50 μg/ml heparin and 4 mg/ml fatty acid-free bovine serum albumin (FAF-BSA; ICPbio Ltd, Aukland, NZ). Intact COCs with compact cumulus vestments>˜5 cell layers and evenly pigmented cytoplasm were selected under a dissecting microscope and washed twice in Hepes-buffered TCM-199 and once in Hepes-buffered TCM-199 supplemented with 10% fetal calf serim (FCS) (Invitrogen, Carlsbad, Calif.). The basic medium for oocyte maturation was Bovine VitroMat (Cook Australia, Eight Mile Plains, Qld, Australia), a medium based on the ionic composition of bovine follicular fluid. […] Complexes were cultured in pre-equilibrated 300 ? l drops overlaid with mineral oil and incubated at 39° C. with 5% CO2 in humidified air for 24 hour. […]
Recombinant mouse GDF9 and recombinant ovine BMP15 were produced and partially purified in-house as previously described using transfected 293 human embryonic kidney cell lines (293H) originally donated by O. Ritvos (University of Helsinki). Control conditioned medium (hereafter designated ‘293H’) was produced from untransfected 293H cells and subjected to the same chromatography procedures as GDF9 and BMP15 conditioned media.
Consequently, SB-431542 potently antagonizes the ALK 4/5 ligands; TGF-β1, the activins and GDF9, without affecting BMP signalling (Inman et al., 2002; Gilchrist et al., 2006). […] Follistatin-288 was generously donated by S. Shimasaki (University of California San Diego, USA) and we have previously shown that this binding protein antagonizes the bioactivities of native OSFs and recombinant BMP15 in CCs.
In vitro production of embryos was undertaken using defined, serum-free media (Bovine Vitro series of media, Cook Australia). Frozen semen from a single bull of proven fertility was used in all experiments. Briefly, thawed semen was layered over a discontinuous (45%: 90%) Percoll gradient (Amersham Bioscience) and centrifuged (RT) for 20-25 mins at 700 g. The supernatant was removed and the sperm pellet was washed with 500 μl Bovine VitroWash (Cook Australia) and centrifuged for a further 5 minutes at 200 g. Spermatozoa were resuspended with IVF medium (Bovine VitroFert, Cook Australia), then added to the fertilization media drops (Bovine VitroFert, supplemented with 0.01 mM heparin, 0.2 mM penicillamine and 0.1 mM hypotaurine) at a final concentration of 1×106 spermatozoa/ml. COCs were inseminated at a density of 10 μl of IVF medium per COC for 24 h, at 39° C. in 6% CO2 in humidified air.
CCs were removed by gentle pipetting 23-24 h post insemination and five presumptive zygotes were transferred into 20 μl drops of pre-equilibrated Cook Bovine VitroCleave medium (Cook Australia) and cultured under mineral oil at 38.5° C. in 7% O2, 6% CO2, balance N2, for five days (day 1 to day 5).
On Day 5, embryos were transferred in groups of 5-6 to 20 μl drops of pre-equilibrated Bovine VitroBlast (Cook Australia) at 38.5° C. overlaid with mineral oil and cultured to Day 8. Embryos were assessed for quality at Day 8 according to the definitions presented in the Manual of the International Embryo Transfer Society (Stringfellow, 1998) and were performed independently and blinded by an experienced bovine embryologist.
Cell counts were performed using a modified version of the technique described by (Fouladi-Nashta et al., 2005). […]

Molecule | blastocyst yield (Experiment 2, 175 ng/ml GDF9, with or without 10% v/v BMP15) | blastocyst yields with exogenous factor | effect on cleavage rate | enhancement of development to the blastocyst stage compared to 293H-treated COCs (10% v/v BMP15 during IVM) | enhancement of development to the blastocyst stage compared to control COCs (10% v/v BMP15 during IVM)
B1 | increased (P<0.05) blastocyst yield compared to 293H-treated COCs, but not compared to COCs cultured alone | increased blastocyst yields | did not significantly alter cleavage rates | – | –
B2 | – | increased blastocyst yields | did not significantly alter cleavage rates | 30% | 16%
